Values quoted from earlier work in paper PMC6175838.

Legend:
claudin-4 (Homo sapiens) = claudin-4 (Homo sapiens) (UniProt O14493); test: given as Ka
claudin-3 (Homo sapiens) = claudin-3 (Homo sapiens) (UniProt O15551); test: given as Ka
Sequence of UniProt O15551 (O15551 whole entry): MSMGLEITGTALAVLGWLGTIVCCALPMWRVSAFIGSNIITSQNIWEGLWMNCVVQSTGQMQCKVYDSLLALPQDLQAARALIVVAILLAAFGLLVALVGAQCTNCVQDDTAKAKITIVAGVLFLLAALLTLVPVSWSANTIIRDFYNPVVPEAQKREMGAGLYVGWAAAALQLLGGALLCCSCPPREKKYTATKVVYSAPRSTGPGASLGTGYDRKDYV

Sequence of UniProt O14493 (O14493 whole entry): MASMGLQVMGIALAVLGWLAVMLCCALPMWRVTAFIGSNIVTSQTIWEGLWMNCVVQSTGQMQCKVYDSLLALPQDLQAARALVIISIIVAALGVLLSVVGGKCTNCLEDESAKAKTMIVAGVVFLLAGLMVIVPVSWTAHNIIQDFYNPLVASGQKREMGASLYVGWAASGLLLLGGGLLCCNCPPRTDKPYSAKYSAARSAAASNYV

For “C-CPE C-terminal domain (from UniProt P01558)”, the Kd (claudin-4 (Homo sapiens)) is given as 0.01 µM and the Kd (claudin-3 (Homo sapiens)) is given as 0.01 µM.
